Consider two substances from article PMC3515998.

The test has as its target Gαi/o proteins (human (endogenous in HEK293T)) (UniProt P63096).
UniProt P63096, sequence (P63096 whole entry): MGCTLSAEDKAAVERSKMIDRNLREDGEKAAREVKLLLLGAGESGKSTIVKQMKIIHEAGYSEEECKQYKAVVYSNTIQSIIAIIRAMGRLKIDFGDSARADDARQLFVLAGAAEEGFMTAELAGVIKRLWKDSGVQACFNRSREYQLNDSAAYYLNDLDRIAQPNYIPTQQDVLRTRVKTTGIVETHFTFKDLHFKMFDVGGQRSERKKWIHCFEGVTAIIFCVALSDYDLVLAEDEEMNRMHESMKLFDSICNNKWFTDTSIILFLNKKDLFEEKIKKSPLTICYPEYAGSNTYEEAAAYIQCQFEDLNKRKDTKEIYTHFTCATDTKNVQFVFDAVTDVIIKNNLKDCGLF

In the case of “F318K mutant of Flag-tagged rat MCHR1 (from UniProt P97639 1-353) (receptor)”, the EC50 of MCH for stimulation of [35S]GTPγS binding to membranes of transfected HEK293T cells (0.001-1000 nM MCH, 30 min, 30°C) is 0.47 nM; the basal [35S]GTPγS binding to membranes (no MCH), percent of Flag-MCHR1 is 97.6%; the maximal [35S]GTPγS binding to membranes with 1 μM MCH, percent of basal was 191 % of basal.
For “Flag-MCHR1 (rat melanin-concentrating hormone receptor 1 with a Flag epitope tag before the first methionine) (from UniProt P97639 1-353)”, the EC50 of MCH for stimulation of [35S]GTPγS binding to membranes of transfected HEK293T cells (0.001-1000 nM MCH, 30 min, 30°C) was 0.23 nM and the maximal [35S]GTPγS binding to membranes with 1 μM MCH, percent of basal was 208 % of basal.
